{
  "source": "paper PMC10679502",
  "biological_target": "presenilin homolog from the methanogen Methanoculleus marisnigri JR1, wild type (Methanoculleus marisnigri JR1)",
  "note": "Primed or numbered codes have the meaning given here. * marks the point of attachment. EDANS′ = N-[2-[(5-sulfo-1-naphthalenyl)amino]ethyl]-L-α-glutamine (donor); DABCYL = 4-((4-(dimethylamino)phenyl)azo)benzoyl (quencher); Benzoyl(2-NHMe) = CNc1ccccc1C(=O)*",
  "data": [
    {"binder": "{Benzoyl(2-NHMe)}-GGVVIATV-{Lys(DNP)}", "note": "[C100FRET NMA-GGVVIATV-DNP]", "values": [
      {"measurement": "Km of cleavage, FRET enzyme kinetics assay (Michaelis-Menten), in DDM", "value": 7.5, "unit": "µM"},
      {"measurement": "Km of cleavage, FRET enzyme kinetics assay (Michaelis-Menten), in bicelles (DMPC/CHAPSO)", "value": 2.8, "unit": "µM"}
    ]},
    {"binder": "{EDANS′}-LVIVGLTFAV-{DABCYL}", "note": "[ErbFRET EDANS-…-DABCYL]", "values": [
      {"measurement": "Km of cleavage, FRET enzyme kinetics assay (Michaelis-Menten), in DDM, no inhibitor, 37 °C, 500 nM MCM.IAP", "value": 4.9, "unit": "µM"},
      {"measurement": "Km of cleavage, FRET enzyme kinetics assay (Michaelis-Menten), in bicelles (DMPC/CHAPSO)", "value": 6.3, "unit": "µM"}
    ]}
  ]
}
